According to patent US11325966:

What was measured:
Assay in all cases: cell-based or functional assay
[1] = molecular target: HIV-1 Env of pseudovirus ZM135M.PE10a (HIV-1)
JR-CSF N362A (HIV-1) = JR-CSF N362A (HIV-1) (UniProt P20871)
[2] = molecular target: BG505 (T332N) N386A (HIV-1)
[3] = molecular target: BG505 (T332N) N339A (HIV-1)
JR-CSF (HIV-1) = JR-CSF (HIV-1) (UniProt P20871)
[4] = molecular target: HIV-1 envelope (Env) of pseudovirus Q259.d2.17 (HIV-1)
[5] = molecular target: HIV-1 envelope (Env) of pseudovirus 1006_11_C3_1601 (HIV-1)
[6] = molecular target: HIV-1 envelope (Env) of pseudovirus ZM249M.PL1 (HIV-1)
[7] = molecular target: HIV-1 envelope (Env) of pseudovirus Ce1172_H1 (HIV-1)
[8] = molecular target: HIV-1 envelope (Env) of pseudovirus Ce2060_G9 (HIV-1)
[9] = molecular target: HIV-1 envelope (Env) of pseudovirus QH0692.42 (HIV-1)
[10] = molecular target: HIV-1 envelope (Env) of pseudovirus 191084 B7-19 (HIV-1)
[11] = molecular target: HIV-1 envelope (Env) of pseudovirus X2131_C1_B5 (HIV-1)
[12] = molecular target: HIV-1 envelope (Env) of pseudovirus CNE58 (HIV-1)
[13] = molecular target: HIV-1 envelope (Env) of pseudovirus TRJO4551.58 (HIV-1)
[14] = molecular target: HIV-1 envelope (Env) of pseudovirus 1394C9G1 (Rev-) (HIV-1)
[15] = molecular target: HIV-1 envelope (Env) of pseudovirus CNE19 (HIV-1)
[16] = molecular target: HIV-1 envelope (Env) of pseudovirus ZM109F.PB4 (HIV-1)
[17] = molecular target: HIV-1 envelope (Env) of pseudovirus 3415.v1.c1 (HIV-1)
[18] = molecular target: HIV-1 envelope (Env) of pseudovirus 191821_E6_1 (HIV-1)
[19] = molecular target: HIV-1 envelope (Env) of pseudovirus SC05_8C11_2344 (HIV-1)
[20] = molecular target: HIV-1 envelope (Env) of pseudovirus 9004SS_A3_4 (HIV-1)
[21] = molecular target: HIV-1 envelope (Env) of pseudovirus ZM197M.PB7 (HIV-1)
[22] = molecular target: HIV-1 envelope (Env) of pseudovirus Du422.1 (HIV-1)
[23] = molecular target: HIV-1 envelope (Env) of pseudovirus Du172.17 (HIV-1)
[24] = molecular target: HIV-1 envelope (Env) of pseudovirus A07412M1.vrc12 (HIV-1)
[25] = molecular target: HIV-1 envelope (Env) of pseudovirus Q842.d12 (HIV-1)
[26] = molecular target: HIV-1 envelope (Env) of pseudovirus 6244_13_B5_4576 (HIV-1)
[27] = molecular target: HIV-1 envelope (Env) of pseudovirus CNE52 (HIV-1)
[28] = molecular target: HIV-1 envelope (Env) of pseudovirus CAP210.2.00.E8 (HIV-1)
[29] = molecular target: HIV-1 envelope (Env) of pseudovirus 89-F1_2_25 (HIV-1)
[30] = molecular target: HIV-1 envelope (Env) of pseudovirus 246F C1G (HIV-1)
[31] = molecular target: HIV-1 envelope (Env) of pseudovirus 1054_07_TC4_1499 (HIV-1)
[32] = molecular target: HIV-1 envelope (Env) of pseudovirus ZM247v1 (Rev-) (HIV-1)
[33] = molecular target: HIV-1 envelope (Env) of pseudovirus CNE21 (HIV-1)
[34] = molecular target: HIV-1 envelope (Env) of pseudovirus C1080.c03 (HIV-1)
[35] = molecular target: HIV-1 envelope (Env) of pseudovirus ZM53M.PB12 (HIV-1)
[36] = molecular target: HIV-1 YU2 Env N332K, on pseudovirus (HIV-1) (UniProt P35961)
[37] = molecular target: HIV-1 Env of pseudovirus BG505/T332N (HIV-1)

354BG8 (antibody)
IC50 in TZM-bl assay [1]: 0.061 µg/mL
IC80 in TZM-bl assay [1]: 0.263 µg/mL
IC50 in TZM-bl assay (JR-CSF N362A (HIV-1)): 0.008 µg/mL
IC50 in TZM-bl assay [2]: 0.004 µg/mL
IC50 in TZM-bl assay [3]: 0.007 µg/mL
IC50 in TZM-bl assay (JR-CSF (HIV-1)): 0.009 µg/mL

BG1 (antibody)
IC50 in TZM-bl assay [4]: > 30 µg/mL
IC80 in TZM-bl assay [4]: > 30 µg/mL
IC50 in TZM-bl assay [5]: > 30 µg/mL
IC80 in TZM-bl assay [5]: > 30 µg/mL
IC50 in TZM-bl assay [6]: 1.22 µg/mL
IC80 in TZM-bl assay [6]: 6.79 µg/mL
IC50 in TZM-bl assay [7]: > 30 µg/mL
IC80 in TZM-bl assay [7]: > 30 µg/mL
IC50 in TZM-bl assay [8]: > 30 µg/mL
IC80 in TZM-bl assay [8]: > 30 µg/mL
IC50 in TZM-bl assay [9]: > 30 µg/mL
IC80 in TZM-bl assay [9]: > 30 µg/mL
IC50 in TZM-bl assay [10]: > 30 µg/mL
IC80 in TZM-bl assay [10]: > 30 µg/mL
IC50 in TZM-bl assay [11]: 0.116 µg/mL
IC80 in TZM-bl assay [11]: 0.313 µg/mL
IC50 in TZM-bl assay [12]: > 30 µg/mL
IC80 in TZM-bl assay [12]: > 30 µg/mL
IC50 in TZM-bl assay [13]: > 30 µg/mL
IC80 in TZM-bl assay [13]: > 30 µg/mL
IC50 in TZM-bl assay [14]: 1.28 µg/mL
IC80 in TZM-bl assay [14]: 7.25 µg/mL
IC50 in TZM-bl assay [15]: 1.27 µg/mL
IC80 in TZM-bl assay [15]: 10.9 µg/mL
IC50 in TZM-bl assay [16]: > 30 µg/mL
IC80 in TZM-bl assay [16]: > 30 µg/mL
IC50 in TZM-bl assay [17]: 14.4 µg/mL
IC80 in TZM-bl assay [17]: > 30 µg/mL
IC50 in TZM-bl assay [18]: > 30 µg/mL
IC80 in TZM-bl assay [18]: > 30 µg/mL
IC50 in TZM-bl assay [19]: > 30 µg/mL
IC80 in TZM-bl assay [19]: > 30 µg/mL
IC50 in TZM-bl assay [20]: > 30 µg/mL
IC80 in TZM-bl assay [20]: > 30 µg/mL
IC50 in TZM-bl assay [21]: > 30 µg/mL
IC80 in TZM-bl assay [21]: > 30 µg/mL
IC50 in TZM-bl assay [22]: 1.8 µg/mL
IC80 in TZM-bl assay [22]: 13.7 µg/mL
IC50 in TZM-bl assay [23]: > 30 µg/mL
IC80 in TZM-bl assay [23]: > 30 µg/mL
IC50 in TZM-bl assay [24]: > 30 µg/mL
IC80 in TZM-bl assay [24]: > 30 µg/mL
IC50 in TZM-bl assay [25]: 1.4 µg/mL
IC80 in TZM-bl assay [25]: 4.3 µg/mL
IC50 in TZM-bl assay [26]: > 30 µg/mL
IC80 in TZM-bl assay [26]: > 30 µg/mL
IC50 in TZM-bl assay [27]: 0.975 µg/mL
IC80 in TZM-bl assay [27]: 5.01 µg/mL
IC50 in TZM-bl assay [28]: > 30 µg/mL
IC80 in TZM-bl assay [28]: > 30 µg/mL
IC50 in TZM-bl assay [29]: > 30 µg/mL
IC80 in TZM-bl assay [29]: > 30 µg/mL
IC50 in TZM-bl assay [30]: > 30 µg/mL
IC80 in TZM-bl assay [30]: > 30 µg/mL
IC50 in TZM-bl assay [31]: > 30 µg/mL
IC80 in TZM-bl assay [31]: > 30 µg/mL
IC50 in TZM-bl assay [32]: > 30 µg/mL
IC80 in TZM-bl assay [32]: > 30 µg/mL
IC50 in TZM-bl assay [33]: > 30 µg/mL
IC80 in TZM-bl assay [33]: > 30 µg/mL
IC50 in TZM-bl assay [34]: 0.002 µg/mL
IC80 in TZM-bl assay [34]: 0.005 µg/mL
IC50 in TZM-bl assay [35]: > 30 µg/mL
IC80 in TZM-bl assay [35]: > 30 µg/mL

BG18 IgG (354BG18) (antibody)
IC50 in TZM-bl assay [36]: > 30 µg/mL
IC80 in TZM-bl assay [36]: > 30 µg/mL
IC50 in TZM-bl assay [37]: < 0.0001 µg/mL
IC80 in TZM-bl assay [37]: 0.002 µg/mL
